# Results as given in article PMC11187106.
# Biological target: CtBP2(WT) (human) (UniProt P56545)
# Test: SEC; analytical Superose 6 3.2/300 GL, 50 mM HEPES (pH 7.2), 150 mM NaCl; CtBP kept at 100 µM, RAI2 variants titrated at ratios 1:0.1 to 1:2; proteins also run alone; assembly stoichiometries estimated from the elution volumes
substance,measurement,value
"CtBP2(WT), P56545 1-445 (natural protein; other documents disagree on this pair)",stoichiometry N,4
